B1: OR4K15 (parent)
chain: GUUAACGGUCAUAGGCCAUGGAAACUAGGAGCACCAUUUCGCUGCCAGUGAAGAAAUGAACAAAGAAAAUCUGGGCCAGGCAGGCAUCAAAAGAAAUAGUCUUGCGCUCAACCAGAAAGUCUGUAAUCAUUUUAAGGGUA

Variants of: B1
Experiment: self-cleavage, relative activity (ratio to wild type); higher = more cleavage; in vitro, sequencing; the parent is a self-cleaving ribozyme

Row | Variant | self-cleavage
1 | GUUAACGGUCAUAGGCCAUGGAAACUAGGAGCACCAUUUCGCUGCCAGUGAAGAAAUGAACAAAGAAAAUCUGGGCCAGGCAGGCAUCAAAAGAAAUAGUCUUGCGCUCAACCAGAAAGUCUGUAAUCAUUUUAAGAGUA [G137A] | 1.12
2 | GUUAACGGUCAUAGGCCAUGGAAACUAGGAGCACCAUUUCGCUGCCAGUGAAGAAAUGAACAAAGAAAAUCUGGGCCAGGCAGGCAUCAAAAGAAAUAGUCUUGCGCUCAACCAGAAAGUCUGUAAUCAUUUUAAGCGUA [G137C] | 1.82
3 | GUUAACGGUCAUAGGCCAUGGAAACUAGGAGCACCAUUUCGCUGCCAGUGAAGAAAUGAACAAAGAAAAUCUGGGCCAGGCAGGCAUCAAAAGAAAUAGUCUUGCGCUCAACCAGAAAGUCUGUAAUCAUGUUAAGGGUA [U131G] | 0.76
4 | GUUAACGGUCAUAGGCCAUGGAAACUAGGAGCACCAUUUCGCUGCCAGUGAAGAAAUGAACAAAGAAAAUCUGGGCCAGGCAGGCAUCAAAAGAAAUAGUCUUGCGCUCAACCAGAAAGUCUGUAAUCAUAUUAAGGGUA [U131A] | 1.05
5 | GUUAACGGUCAUAGGCCAUGGAAACUAGGAGCACCAUUUCGCUGCCAGUGAAGAAAUGAACAAAGAAAAUCUGGGCCAGGCAGGCAUCAAAAGAAAUAGUCUUGCGCUCAACCAGAAAGUCUGUAAUCAUCUUAAGGGUA [U131C] | 0.71
6 | GUUAACGGUCAUAGGCCAUGGAAACUAGGAGCACCAUUUCGCUGCCAGUGAAGAAAUGAACAAAGAAAAUCUGGGCCAGGCAGGCAUCAAAAGAAAUAGUCUUGCGCUCAACCAGAAAGUCUGUAAUCAUUUUUAGGGUA [A134U] | 1.26
7 | GUUAACGGUCAUAGGCCAUGGAAACUAGGAGCACCAUUUCGCUGCCAGUGAAGAAAUGAACAAAGAAAAUCUGGGCCAGGCAGGCAUCAAAAGAAAUAGUCUUGCGCUCAACCAGAAAGUCUGUAAUCAUUUUGAGGGUA [A134G] | 1.15
8 | GUUAACGGUCAUAGGCCAUGGAAACUAGGAGCACCAUUUCGCUGCCAGUGAAGAAAUGAACAAAGAAAAUCUGGGCCAGGCAGGCAUCAAAAGAAAUAGUCUUGCGCUCAACCAGAAAGUCUGUAAUCAUUUUCAGGGUA [A134C] | 1.35
9 | GUUAACGGUCAUAGGCCAUGGAAACUAGGAGCACCAUUUCGCUGCCAGUGAAGAAAUGAACAAAGAAAAUCUGGGCCAGGCAGGCAUCAAAAGAAAUAGUCUUGCGCUCAACCAGAAAGUCUGUAAUCAUUUUGCGGGUA [A134G A135C] | 1.54
10 | GUUAACGGUCAUAGGCCAUGGAAACUAGGAGCACCAUUUCGCUGCCAGUGAAGAAAUGAACAAAGAAAAUCUGGGCCAGGCAGGCAUCAAAAGAAAUAGUCUUGCGCUCAACCAGAAAGUCUGUAAUCAUUUUGUGGGUA [A134G A135U] | 0.3
11 | GUUAACGGUCAUAGGCCAUGGAAACUAGGAGCACCAUUUCGCUGCCAGUGAAGAAAUGAACAAAGAAAAUCUGGGCCAGGCAGGCAUCAAAAGAAAUAGUCUUGCGCUCAACCAGAAAGUCUGUAAUCAUUUUAGGAGUA [A135G G137A] | 0.09
12 | GUUAACGGUCAUAGGCCAUGGAAACUAGGAGCACCAUUUCGCUGCCAGUGAAGAAAUGAACAAAGAAAAUCUGGGCCAGGCAGGCAUCAAAAGAAAUAGUCUUGCGCUCAACCAGAAAGUCUGUAAUCACUUUAAGGGCA [U130C U139C] | 1.09
13 | GUUAACGGUCAUAGGCCAUGGAAACUAGGAGCACCAUUUCGCUGCCAGUGAAGAAAUGAACAAAGAAAAUCUGGGCCAGGCAGGCAUCAAAAGAAAUAGUCUUGCGCUCAACCAGAAAGUCUGUAAUCAUUUUAUGGGUA [A135U] | 1.47
14 | GUUAACGGUCAUAGGCCAUGGAAACUAGGAGCACCAUUUCGCUGCCAGUGAAGAAAUGAACAAAGAAAAUCUGGGCCAGGCAGGCAUCAAAAGAAAUAGUCUUGCGCUCAACCAGAAAGUCUGUAAUCAUUUUACGGGUA [A135C] | 0.69
15 | GUUAACGGUCAUAGGCCAUGGAAACUAGGAGCACCAUUUCGCUGCCAGUGAAGAAAUGAACAAAGAAAAUCUGGGCCAGGCAGGCAUCAAAAGAAAUAGUCUUGCGCUCAACCAGAAAGUCUGUAAUCAUUUUAGGGGUA [A135G] | 1.14
16 | GUUAACGGUCAUAGGCCAUGGAAACUAGGAGCACCAUUUCGCUGCCAGUGAAGAAAUGAACAAAGAAAAUCUGGGCCAGGCAGGCAUCAAAAGAAAUAGUCUUGCGCUCAACCAGAAAGUCUGUAAUCAUUCUAAGGGUU [U132C A140U] | 1.65
17 | GUUAACGGUCAUAGGCCAUGGAAACUAGGAGCACCAUUUCGCUGCCAGUGAAGAAAUGAACAAAGAAAAUCUGGGCCAGGCAGGCAUCAAAAGAAAUAGUCUUGCGCUCAACCAGAAAGUCUGUAAUCAUUCUAAGGGUG [U132C A140G] | 1.79
18 | GUUAACGGUCAUAGGCCAUGGAAACUAGGAGCACCAUUUCGCUGCCAGUGAAGAAAUGAACAAAGAAAAUCUGGGCCAGGCAGGCAUCAAAAGAAAUAGUCUUGCGCUCAACCAGAAAGUCUGUAAUCAUUAUAAGGGUA [U132A] | 1.53
19 | GUUAACGGUCAUAGGCCAUGGAAACUAGGAGCACCAUUUCGCUGCCAGUGAAGAAAUGAACAAAGAAAAUCUGGGCCAGGCAGGCAUCAAAAGAAAUAGUCUUGCGCUCAACCAGAAAGUCUGUAAUCAUUCUAAGGGUA [U132C] | 1.05
20 | GUUAACGGUCAUAGGCCAUGGAAACUAGGAGCACCAUUUCGCUGCCAGUGAAGAAAUGAACAAAGAAAAUCUGGGCCAGGCAGGCAUCAAAAGAAAUAGUCUUGCGCUCAACCAGAAAGUCUGUAAUCAUUGUAAGGGUA [U132G] | 0.89
21 | GUUAACGGUCAUAGGCCAUGGAAACUAGGAGCACCAUUUCGCUGCCAGUGAAGAAAUGAACAAAGAAAAUCUGGGCCAGGCAGGCAUCAAAAGAAAUAGUCUUGCGCUCAACCAGAAAGUCUGUAAUCAUAUUAAGGCUA [U131A G138C] | 1.83

Row | Variant | self-cleavage
22 | GUUAACGGUCAUAGGCCAUGGAAACUAGGAGCACCAUUUCGCUGCCAGUGAAGAAAUGAACAAAGAAAAUCUGGGCCAGGCAGGCAUCAAAAGAAAUAGUCUUGCGCUCAACCAGAAAGUCUGUAAUCAUUCUUAGGGUA [U132C A134U] | 1.49
23 | GUUAACGGUCAUAGGCCAUGGAAACUAGGAGCACCAUUUCGCUGCCAGUGAAGAAAUGAACAAAGAAAAUCUGGGCCAGGCAGGCAUCAAAAGAAAUAGUCUUGCGCUCAACCAGAAAGUCUGUAAUCAUUAUAAGGGUU [U132A A140U] | 0.14
24 | GUUAACGGUCAUAGGCCAUGGAAACUAGGAGCACCAUUUCGCUGCCAGUGAAGAAAUGAACAAAGAAAAUCUGGGCCAGGCAGGCAUCAAAAGAAAUAGUCUUGCGCUCAACCAGAAAGUCUGUAAUCAUUUUAGGGGUG [A135G A140G] | 0.95
25 | GUUAACGGUCAUAGGCCAUGGAAACUAGGAGCACCAUUUCGCUGCCAGUGAAGAAAUGAACAAAGAAAAUCUGGGCCAGGCAGGCAUCAAAAGAAAUAGUCUUGCGCUCAACCAGAAAGUCUGUAAUCAUAAUAAGGGUA [U131A U132A] | 0.14
26 | GUUAACGGUCAUAGGCCAUGGAAACUAGGAGCACCAUUUCGCUGCCAGUGAAGAAAUGAACAAAGAAAAUCUGGGCCAGGCAGGCAUCAAAAGAAAUAGUCUUGCGCUCAACCAGAAAGUCUGUAAUCAUUAUAAGGGCA [U132A U139C] | 1.56
27 | GUUAACGGUCAUAGGCCAUGGAAACUAGGAGCACCAUUUCGCUGCCAGUGAAGAAAUGAACAAAGAAAAUCUGGGCCAGGCAGGCAUCAAAAGAAAUAGUCUUGCGCUCAACCAGAAAGUCUGUAAUCAUUCUAAGGGCA [U132C U139C] | 1.81
28 | GUUAACGGUCAUAGGCCAUGGAAACUAGGAGCACCAUUUCGCUGCCAGUGAAGAAAUGAACAAAGAAAAUCUGGGCCAGGCAGGCAUCAAAAGAAAUAGUCUUGCGCUCAACCAGAAAGUCUGUAAUCAUUCCAAGGGUA [U132C U133C] | 1.1
29 | GUUAACGGUCAUAGGCCAUGGAAACUAGGAGCACCAUUUCGCUGCCAGUGAAGAAAUGAACAAAGAAAAUCUGGGCCAGGCAGGCAUCAAAAGAAAUAGUCUUGCGCUCAACCAGAAAGUCUGUAAUCAUCUUAAGGGCA [U131C U139C] | 0.46
30 | GUUAACGGUCAUAGGCCAUGGAAACUAGGAGCACCAUUUCGCUGCCAGUGAAGAAAUGAACAAAGAAAAUCUGGGCCAGGCAGGCAUCAAAAGAAAUAGUCUUGCGCUCAACCAGAAAGUCUGUAAUCAUCUUAAGGGAA [U131C U139A] | 1.84
31 | GUUAACGGUCAUAGGCCAUGGAAACUAGGAGCACCAUUUCGCUGCCAGUGAAGAAAUGAACAAAGAAAAUCUGGGCCAGGCAGGCAUCAAAAGAAAUAGUCUUGCGCUCAACCAGAAAGUCUGUAAUCAUCUAAAGGGUA [U131C U133A] | 0.91
32 | GUUAACGGUCAUAGGCCAUGGAAACUAGGAGCACCAUUUCGCUGCCAGUGAAGAAAUGAACAAAGAAAAUCUGGGCCAGGCAGGCAUCAAAAGAAAUAGUCUUGCGCUCAACCAGAAAGUCUGUAAUCAUUUCGAGGGUA [U133C A134G] | 0.26
33 | GUUAACGGUCAUAGGCCAUGGAAACUAGGAGCACCAUUUCGCUGCCAGUGAAGAAAUGAACAAAGAAAAUCUGGGCCAGGCAGGCAUCAAAAGAAAUAGUCUUGCGCUCAACCAGAAAGUCUGUAAUCAGUUUAAGGGUA [U130G] | 1.03
34 | GUUAACGGUCAUAGGCCAUGGAAACUAGGAGCACCAUUUCGCUGCCAGUGAAGAAAUGAACAAAGAAAAUCUGGGCCAGGCAGGCAUCAAAAGAAAUAGUCUUGCGCUCAACCAGAAAGUCUGUAAUCACUUAAAGGGUA [U130C U133A] | 2.08
35 | GUUAACGGUCAUAGGCCAUGGAAACUAGGAGCACCAUUUCGCUGCCAGUGAAGAAAUGAACAAAGAAAAUCUGGGCCAGGCAGGCAUCAAAAGAAAUAGUCUUGCGCUCAACCAGAAAGUCUGUAAUCAUCUUAAAGGUA [U131C G136A] | 0.88
36 | GUUAACGGUCAUAGGCCAUGGAAACUAGGAGCACCAUUUCGCUGCCAGUGAAGAAAUGAACAAAGAAAAUCUGGGCCAGGCAGGCAUCAAAAGAAAUAGUCUUGCGCUCAACCAGAAAGUCUGUAAUCAUUAUAGGGGUA [U132A A135G] | 0.87
37 | GUUAACGGUCAUAGGCCAUGGAAACUAGGAGCACCAUUUCGCUGCCAGUGAAGAAAUGAACAAAGAAAAUCUGGGCCAGGCAGGCAUCAAAAGAAAUAGUCUUGCGCUCAACCAGAAAGUCUGUAAUCAUAUAAAGGGUA [U131A U133A] | 0.95
38 | GUUAACGGUCAUAGGCCAUGGAAACUAGGAGCACCAUUUCGCUGCCAGUGAAGAAAUGAACAAAGAAAAUCUGGGCCAGGCAGGCAUCAAAAGAAAUAGUCUUGCGCUCAACCAGAAAGUCUGUAAUCAUUUCAGGGGUA [U133C A135G] | 0.03
39 | GUUAACGGUCAUAGGCCAUGGAAACUAGGAGCACCAUUUCGCUGCCAGUGAAGAAAUGAACAAAGAAAAUCUGGGCCAGGCAGGCAUCAAAAGAAAUAGUCUUGCGCUCAACCAGAAAGUCUGUAAUCAUUUUUUGGGUA [A134U A135U] | 1.42
40 | GUUAACGGUCAUAGGCCAUGGAAACUAGGAGCACCAUUUCGCUGCCAGUGAAGAAAUGAACAAAGAAAAUCUGGGCCAGGCAGGCAUCAAAAGAAAUAGUCUUGCGCUCAACCAGAAAGUCUGUAAUCAUUCUAUGGGUA [U132C A135U] | 2.17
41 | GUUAACGGUCAUAGGCCAUGGAAACUAGGAGCACCAUUUCGCUGCCAGUGAAGAAAUGAACAAAGAAAAUCUGGGCCAGGCAGGCAUCAAAAGAAAUAGUCUUGCGCUCAACCAGAAAGUCUGUAAUCAUAUUUAGGGUA [U131A A134U] | 0.77

From the RNAGym collection of RNA variant scans (doi:10.7554/elife.90254)
